Reference: doi:10.1101/2024.04.02.587325, “Structural characterization of the Pseudomonas Aeruginosa MexR–mexR repressor-operator complex: a small-angle X-ray and neutron scattering perspective”

Target: MexR (Pseudomonas aeruginosa, UniProt P52003)
Test: ITC; one set of sites; N = 4.0 ± 0.1; dH 122.3 ± 5.2 kJ/mol; ITC: 20 mM NaPO4 pH 7.0, 150 mM NaCl, 5 mM beta-mercaptoethanol, 20 C; SEC of the complex: 20 mM HEPES, 150 mM NaCl, 2 mM TCEP
Conditions: protein: recombinant; tags: N-terminal His6-Trx removed by TEV; residual SM; chain copies: 4; blunt

Chain of MexR (P52003 5-139, tags or fused parts left off): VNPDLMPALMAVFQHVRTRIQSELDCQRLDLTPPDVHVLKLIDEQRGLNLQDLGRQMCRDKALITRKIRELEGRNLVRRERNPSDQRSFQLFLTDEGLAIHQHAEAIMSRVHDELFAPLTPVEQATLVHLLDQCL

B1: 60 bp mexR-mexA operator DNA (PI+PII) (dsDNA)
DNA 1: AAATGTGGTTGATCCAGTCAACTATTTTGCTTATTTTAGTTGACCTTATCAACCTTGTTT
DNA 2: AAACAAGGTTGATAAGGTCAACTAAAATAAGCAAAATAGTTGACTGGATCAACCACATTT
Work on B1 yielded a Kd of 206 ± 52 nM.
